Experiments:
HeLa Kyoto [1] = experiment: solubility in G1/S (NP-40 vs SDS abundance) (log2 ratio); higher = more soluble; details: cell cycle stage: G1/S
HeLa Kyoto [2] = experiment: melting temperature (median over replicates), in situ; higher = more thermally stable
HeLa Kyoto [3] = experiment: solubility change mitosis vs G1/S (difference of NP-40 vs SDS log2 ratios) (log2 ratio difference); higher = more soluble in mitosis
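For melting temperature (median over replicates), in situ in this document: HeLa Kyoto cells synchronized by double thymidine or nocodazole block, proteins quantified by TMT10plex mass spectrometry, three independent biological replicates.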
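For solubility change mitosis vs G1/S (difference of NP-40 vs SDS log2 ratios) in this document: synchronized HeLa Kyoto cells (double thymidine block for G1/S, nocodazole release for mitosis), protein amounts in NP-40 versus SDS lysates quantified by mass spectrometry, three biological replicates.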
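For solubility in G1/S (NP-40 vs SDS abundance) in this document: HeLa Kyoto cells arrested at G1/S by double thymidine block, proteins quantified by TMT10plex mass spectrometry in mild NP-40 versus SDS extracts, three biological replicates.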

| Sequence | solubility in G1/S (log2) (HeLa Kyoto [1]) | melting temperature (HeLa Kyoto [2]; cell cycle stage: G1/S) [°C] | solubility change mitosis (log2) (HeLa Kyoto [3]) | melting temperature (HeLa Kyoto [2]; cell cycle stage: mitosis) [°C] |
| --- | --- | --- | --- | --- |
| MKDPSRSSTSPSIINEDVIINGHSHEDDNPFAEYMWMENEEEFNRQIEEELWEEEFIERCFQEMLEEEEEHEWFIPARDLPQTMDQIQDQFNDLVISDGSSLEDLVVKSNLNPNAKEFVPGVKYGNI [PAIP2] | 0.197 | 50.5 | -0.113 | – |
| MKDRLEQLKAKQLTQDDDTDAVEIAIDNTAFMDEFFSEIEETRLNIDKISEHVEEAKKLYSIILSAPIPEPKTKDDLEQLTTEIKKRANNVRNKLKSMEKHIEEDEVRSSADLRIRKSQHSVLSRKFVEVMTKYNEAQVDFRERSKGRIQRQLEITGKKTTDEELEEMLESGNPAIFTSGIIDSQISKQALSEIEGRHKDIVRLESSIKELHDMFMDIAMLVENQGEMLDNIELNVMHTVDHVEKARDETKKAVKYQSQARKKLIIIIVLVVVLLGILALIIGLSVGLN [STX3] | 0.157 | 53.9 | 0.0981 | – |
| MKGLGDSRPRHLSDSLDPPHEPLFAGTDRNPYLLSPTEAFAREARFPGQNTLPGDGLFPLNNQLPPPSSTFPRIHYNSHFEVPEESPFPSHAQATKINRLPANLLDQFEKQLPIHRDGFSTLQFPRGEAKARGESPGRIRHLVHSVQRLFFTKAPSLEGTAGKVGGNGSKKGGMEDGKGRRAKSKERAKAGEPKRRSRSNISGWWSSDDNLDGEAGAFRSSGPASGLMTLGRQAERSQPRYFMHAYNTISGHMLKTTKNNTTELTAPPPPPAPPATCPSLGVGTDTNYVKRGSWSTLTLSHAHEVCQKTSATLDKSLLKSKSCHQGLAYHYLQVPGGGGEWSTTLLSPRETDAAAEGPIPCRRMRSGSYIKAMGDEDSDESGGSPKPSPKTAARRQSYLRATQQSLGEQSNPRRSLDRLDSVDMLLPSKCPSWEEDYTPVSDSLNDSSCISQIFGQASLIPQLFGHEQQVREAELSDQYEAACESACSEAESTAAETLDLPLPSYFRSRSHSYLRAIQAGCSQEEDSVSLQSLSPPPSTGSLSNSRTLPSSSCLVAYKKTPPPVPPRTTSKPFISVTVQSSTESAQDTYLDSQDHKSEVTSQSGLSNSSDSLDSSTRPPSVTRGGVAPAPEAPEPPPKHAALKSEQGTLTSSESHPEAAPKRKLSSIGIQVDCIQPVPKEEPSPATKFQSIGVQVEDDWRSSVPSHSMSSRRDTDSDTQDANDSSCKSSERSLPDCTPHPNSISIDAGPRQAPKIAQIKRNLSYGDNSDPALEASSLPPPDPWLETSSSSPAEPAQPGACRRDGYWFLKLLQAETERLEGWCCQMDKETKENNLSEEVLGKVLSAVGSAQLLMSQKFQQFRGLCEQNLNPDANPRPTAQDLAGFWDLLQLSIEDISMKFDELYHLKANSWQLVETPEKRKEEKKPPPPVPKKPAKSKPAVSRDKASDASDKQRQEARKRLLAAKRAASVRQNSATESADSIEIYVPEAQTRL [DLGAP4] | 0.269 | – | -0.0211 | 55.5 |
| MKIGSGFLSGGGGTGSSGGSGSGGGGSGGGGGGGSSGRRAEMEPTFPQGMVMFNHRLPPVTSFTRPAGSAAPPPQCVLSSSTSAAPAAEPPPPPAPDMTFKKEPAASAAAFPSQRTSWGFLQSLVSIKQEKPADPEEQQSHHHHHHHHYGGLFAGAEERSPGLGGGEGGSHGVIQDLSILHQHVQQQPAQHHRDVLLSSSSRTDDHHGTEEPKQDTNVKKAKRPKPESQGIKAKRKPSASSKPSLVGDGEGAILSPSQKPHICDHCSAAFRSSYHLRRHVLIHTGERPFQCSQCSMGFIQKYLLQRHEKIHSREKPFGCDQCSMKFIQKYHMERHKRTHSGEKPYKCDTCQQYFSRTDRLLKHRRTCGEVIVKGATSAEPGSSNHTNMGNLAVLSQGNTSSSRRKTKSKSIAIENKEQKTGKTNESQISNNINMQSYSVEMPTVSSSGGIIGTGIDELQKRVPKLIFKKGSRKNTDKNYLNFVSPLPDIVGQKSLSGKPSGSLGIVSNNSVETIGLLQSTSGKQGQISSNYDDAMQFSKKRRYLPTASSNSAFSINVGHMVSQQSVIQSAGVSVLDNEAPLSLIDSSALNAEIKSCHDKSGIPDEVLQSILDQYSNKSESQKEDPFNIAEPRVDLHTSGEHSELVQEENLSPGTQTPSNDKASMLQEYSKYLQQAFEKSTNASFTLGHGFQFVSLSSPLHNHTLFPEKQIYTTSPLECGFGQSVTSVLPSSLPKPPFGMLFGSQPGLYLSALDATHQQLTPSQELDDLIDSQKNLETSSAFQSSSQKLTSQKEQKNLESSTGFQIPSQELASQIDPQKDIEPRTTYQIENFAQAFGSQFKSGSRVPMTFITNSNGEVDHRVRTSVSDFSGYTNMMSDVSEPCSTRVKTPTSQSYR [ZNF281] | -0.357 | 45.1 | 0.0949 | 47.4 |
| MKVLLLKDAKEDDCGQDPYIRELGLYGLEATLIPVLSFEFLSLPSFSEKLSHPEDYGGLIFTSPRAVEAAELCLEQNNKTEVWERSLKEKWNAKSVYVVGNATASLVSKIGLDTEGETCGNAEKLAEYICSRESSALPLLFPCGNLKREILPKALKDKGIAMESITVYQTVAHPGIQGNLNSYYSQQGVPASITFFSPSGLTYSLKHIQELSGDNIDQIKFAAIGPTTARALAAQGLPVSCTAESPTPQALATGIRKALQPHGCC [UROS] | 0.234 | 51.5 | 0.14 | 52.4 |
| MLGWIKRLIRMVFQQVGVSMQSVLWSRKPYGSSRSIVRKIGTNLSLIQCPRVQFQINSHATEWSPSHPGEDAVASFADVGWVAKEEGECSARLRTEVRSRPPLQDDLLFFEKAPSRQISLPDLSQEEPQLKTPALANEEALQKICALENELAALRAQIAKIVTQQEQQNLTAGDLDSTTFGTIPPHPPPPPPPLPPPALGLHQSTSAVDLIKERREKRANAGKTLVKNNPKKPEMPNMLEILKEMNSVKLRSVKRSEQDVKPKPVDATDPAALIAEALKKKFAYRYRSDSQDEVEKGIPKSESEATSERVLFGPHMLKPTGKMKALIENVSDS [MTFR1] | 0.556 | 49.3 | 0.0301 | 52.1 |
| MLQGHSSVFQALLGTFFTWGMTAAGAALVFVFSSGQRRILDGSLGFAAGVMLAASYWSLLAPAVEMATSSGGFGAFAFFPVAVGFTLGAAFVYLADLLMPHLGAAEDPQTTLALNFGSTLMKKKSDPEGPALLFPESELSIRIGRAGLLSDKSENGEAYQRKKAAATGLPEGPAVPVPSRGNLAQPGGSSWRRIALLILAITIHNVPEGLAVGVGFGAIEKTASATFESARNLAIGIGIQNFPEGLAVSLPLRGAGFSTWRAFWYGQLSGMVEPLAGVFGAFAVVLAEPILPYALAFAAGAMVYVVMDDIIPEAQISGNGKLASWASILGFVVMMSLDVGLG [SLC39A11] | 0.00506 | 56 | -0.134 | 51.9 |
| MLRREARLRREYLYRKAREEAQRSAQERKERLRRALEENRLIPTELRREALALQGSLEFDDAGGEGVTSHVDDEYRWAGVEDPKVMITTSRDPSSRLKMFAKELKLVFPGAQRMNRGRHEVGALVRACKANGVTDLLVVHEHRGTPVGLIVSHLPFGPTAYFTLCNVVMRHDIPDLGTMSEAKPHLITHGFSSRLGKRVSDILRYLFPVPKDDSHRVITFANQDDYISFRHHVYKKTDHRNVELTEVGPRFELKLYMIRLGTLEQEATADVEWRWHPYTNTARKRVFLSTE [IMP4] | -1.9 | – | 0.914 | 51.4 |
| MMATPNQTACNAESPVALEEAKTSGAPGSPQTPPERHDSGGSLPLTPRMESHSEDEDLAGAVGGLGWNSRSPRTQSPGGCSAEAVLARKKHRRRPSKRKRHWRPYLELSWAEKQQRDERQSQRASRVREEMFAKGQPVAPYNTTQFLMNDRDPEEPNLDVPHGISHPGSSGESEAGDSDGRGRAHGEFQRKDFSETYERFHTESLQGRSKQELVRDYLELEKRLSQAEEETRRLQQLQACTGQQSCRQVEELAAEVQRLRTENQRLRQENQMWNREGCRCDEEPGT [HEXIM2] | 0.492 | 54.6 | 0.139 | 53.4 |
| MNRLPDDYDPYAVEEPSDEEPALSSSEDEVDVLLHGTPDQKRKLIRECLTGESESSSEDEFEKEMEAELNSTMKTMEDKLSSLGTGSSSGNGKVATAPTRYYDDIYFDSDSEDEDRAVQVTKKKKKKQHKIPTNDELLYDPEKDNRDQAWVDAQRRGYHGLGPQRSRQQQPVPNSDAVLNCPACMTTLCLDCQRHESYKTQYRAMFVMNCSINKEEVLRYKASENRKKRRVHKKMRSNREDAAEKAETDVEEIYHPVMCTECSTEVAVYDKDEVFHFFNVLASHS [EAPP] | 0.159 | 50.3 | 0.14 | – |
| MNVALQELGAGSNMVEYKRATLRDEDAPETPVEGGASPDAMEVGKGASPFSPGPSPGMTPGTPRSSGLFWRVTCPHLRSISGLCSRTMVGFQKGTRQLLGSRTQLELVLAGASLLLAALLLGCLVALGVQYHRDPSHSTCLTEACIRVAGKILESLDRGVSPCEDFYQFSCGGWIRRNPLPDGRSRWNTFNSLWDQNQAILKHLLENTTFNSSSEAEQKTQRFYLSCLQVERIEELGAQPLRDLIEKIGGWNITGPWDQDNFMEVLKAVAGTYRATPFFTVYISADSKSSNSNVIQVDQSGLFLPSRDYYLNRTANEKVLTAYLDYMEELGMLLGGRPTSTREQMQQVLELEIQLANITVPQDQRRDEEKIYHKMSISELQALAPSMDWLEFLSFLLSPLELSDSEPVVVYGMDYLQQVSELINRTEPSILNNYLIWNLVQKTTSSLDRRFESAQEKLLETLYGTKKSCVPRWQTCISNTDDALGFALGSLFVKATFDRQSKEIAEGMISEIRTAFEEALGQLVWMDEKTRQAAKEKADAIYDMIGFPDFILEPKELDDVYDGYEISEDSFFQNMLNLYNFSAKVMADQLRKPPSRDQWSMTPQTVNAYYLPTKNEIVFPAGILQAPFYARNHPKALNFGGIGVVMGHELTHAFDDQGREYDKEGNLRPWWQNESLAAFRNHTACMEEQYNQYQVNGERLNGRQTLGENIADNGGLKAAYNAYKAWLRKHGEEQQLPAVGLTNHQLFFVGFAQVWCSVRTPESSHEGLVTDPHSPARFRVLGTLSNSRDFLRHFGCPVGSPMNPGQLCEVW [ECE2] | 0.0962 | – | -0.189 | 50.7 |
| MPNFCAAPNCTRKSTQSDLAFFRFPRDPARCQKWVENCRRADLEDKTPDQLNKHYRLCAKHFETSMICRTSPYRTVLRDNAIPTIFDLTSHLNNPHSRHRKRIKELSEDEIRTLKQKKIDETSEQEQKHKETNNSNAQNPSEEEGEGQDEDILPLTLEEKENKEYLKSLFEILILMGKQNIPLDGHEADEIPEGLFTPDNFQALLECRINSGEEVLRKRFETTAVNTLFCSKTQQRQMLEICESCIREETLREVRDSHFFSIITDDVVDIAGEEHLPVLVRFVDESHNLREEFIGFLPYEADAEILAVKFHTMITEKWGLNMEYCRGQAYIVSSGFSSKMKVVASRLLEKYPQAIYTLCSSCALNMWLAKSVPVMGVSVALGTIEEVCSFFHRSPQLLLELDNVISVLFQNSKERGKELKEICHSQWTGRHDAFEILVELLQALVLCLDGINSDTNIRWNNYIAGRAFVLCSAVSDFDFIVTIVVLKNVLSFTRAFGKNLQGQTSDVFFAAGSLTAVLHSLNEVMENIEVYHEFWFEEATNLATKLDIQMKLPGKFRRAHQGNLESQLTSESYYKETLSVPTVEHIIQELKDIFSEQHLKALKCLSLVPSVMGQLKFNTSEEHHADMYRSDLPNPDTLSAELHCWRIKWKHRGKDIELPSTIYEALHLPDIKFFPNVYALLKVLCILPVMKVENERYENGRKRLKAYLRNTLTDQRSSNLALLNINFDIKHDLDLMVDTYIKLYTSKSELPTDNSETVENT [PRKRIR] | 0.246 | 51.3 | -0.0658 | 50.9 |

Reference: the supplement of paper PMC5998384
